According to article PMC8615749, “Human Parainfluenza Virus 3 Phosphoprotein Is a Tetramer and Shares Structural and Interaction Features with Ebola Phosphoprotein VP35” (Biomolecules, 2021):

How the values were obtained:
[1] = biological target: T1, LC8 (DYNLL1), recombinant (human, UniProt P63167 1-89); assay: ITC; settings: both partners purified
T1 construct: also called human LC8

SEC-MALS = biological target: the molecule itself; assay: SEC-MALS

T1 sequence (P63167 whole entry): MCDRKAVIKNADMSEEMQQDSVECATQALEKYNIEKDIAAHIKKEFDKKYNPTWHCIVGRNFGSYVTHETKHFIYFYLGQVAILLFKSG

Binder | Kd [1] [µM] | stoichiometry N (SEC-MALS)
PMDL, recombinant construct of the human parainfluenza virus 3 phosphoprotein (HPIV3 P): short P_TAI (domain or fragment, source: E. coli Rosetta DE3, purified (TALON His-Tag resin, SEC Superdex 75)) SDHKPTSKGQKKISKTTTTNTDTKGQTETQTESSETQSNVDTASKIDFLAGLVIGVSMDNDTKLIQIQNEMLNLKADLKRMDESHRRLIENQREQLSLITSLISNLKIMT | ~50 | 4
Zaire Ebolavirus (EBOV) phosphoprotein VP35, construct of residues 65-145 (LC8 anchor 65-82 and mult (domain or fragment, also called VP35 65-145; EBOV VP35 65-145) NPKTRNSQTQTDPICNHSFEEVVQTLASLATVVQQQTIASESLEQRITSLENGLKPVYDMAKTISSLNRVCAEMVAKYDLL | 0.13 | 4
